Consider three molecules from PMC2764403 (Biochemistry, 2009).

What all share (assay): AUC
Data set [1] addresses βB1ΔN56, murine βB1-crystallin with N-terminal residues 1-56 deleted (murine).
The target of data set [2] is human βA3-crystallin (human) (UniProt P05813).
Data set [3] has as its target βB1ΔN47, tryptic product of murine βB1-crystallin (residues 1-47 removed) (murine).
Data set [4] has as its target T1, murine βB1-crystallin (murine, UniProt Q9WVJ5 1-250).
T1 sequence (looked up): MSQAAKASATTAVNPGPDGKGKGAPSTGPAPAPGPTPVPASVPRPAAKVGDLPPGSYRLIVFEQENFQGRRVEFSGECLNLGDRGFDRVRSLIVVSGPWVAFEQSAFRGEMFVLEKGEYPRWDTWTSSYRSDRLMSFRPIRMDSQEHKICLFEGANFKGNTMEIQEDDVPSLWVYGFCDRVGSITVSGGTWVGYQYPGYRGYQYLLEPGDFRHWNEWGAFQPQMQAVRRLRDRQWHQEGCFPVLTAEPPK

Data set [5] deals with the molecule itself.

“βB1ΔN56, murine βB1-crystallin with N-terminal residues 1-56 deleted (domain or fragment)”: the stoichiometry N (commonly the number of molecules, sites or subunits per partner or assembly) in data set [1] was 4.

As to “βB1ΔN47, tryptic product of murine βB1-crystallin (residues 1-47 removed) (domain or fragment)”, the Kd (usually the free concentration of one partner at which half of the binding sites on the other are occupied at equilibrium, for simple one-to-one binding) in data set [2] was found to be 200 nM. Moreover, in data set [3], the Kd came to 1400 nM and the stoichiometry N worked out at 2.

B1: βA3ΔN30, human βA3-crystallin with N-terminal residues 1-30 deleted and residue 31 replaced by glycine (domain or fragment, UniProt P05813-1 31-215, looked up)
chain: GKITIYDQENFQGKRMEFTSSCPNVSERSFDNVRSLKVESGAWIGYEHTSFCGQQFILERGEYPRWDAWSGSNAYHIERLMSFRPICSANHKESKMTIFEKENFIGRQWEISDDYPSLQAMGWFNNEVGSMKIQSGAWVCYQYPGYRGYQYILECDHHGGDYKHWREWGSHAQTSQIQSIRRIQQ
Turning to B1, the figures for the Kd in data set [4] and in data set [5] were 5000 nM and 100 nM, respectively. The “stoichiometry N” value in data set [5] was determined as 2.
